Test results taken from publication PMC10985318.

Substrate: Nc1ncnc2c1ncn2[C@@H]1O[C@H](COP(=O)(O)OP(=O)(O)OP(=O)(O)O)[C@@H](O)[C@H]1O
Assay: purified protein
Conditions: MgATP, MgCl2 twice the ATP concentration, 25 mM Tris/HCl pH 8.0, 60 mM KCl, 25 °C, at saturating MgATP, non-Michaelis kinetics, local double-reciprocal fit of three consecutive concentrations

B1: V1ΔHC (S. cerevisiae V1-ATPase lacking subunits H and C) (Saccharomyces cerevisiae S288C) (protein)
chain 1: AGAIENARKEIKRISLEDHAESEYGAIYSVSGPVVIAENMIGCAMYELVKVGHDNLVGEVIRIDGDKATIQVYEETAGLTVGDPVLRTGKPLSVELGPGLMETIYDGIQRPLKAIKEESQSIYIPRGIDTPALDRTIKWQFTPGKFQVGDHISGGDIYGSVFENSLISSHKILLPPRSRGTITWIAPAGEYTLDEKILEVEFDGKKSDFTLYHTWPVRVPRPVTEKLSADYPLLTGQRVLDALFPCVQGGTTCIPGAFGCGKTVISQSLSKYSNSDAIIYVG
chain 2: CGERGNEMAEVLMEFPELYTEMSGTKEPIMKRTTLVANTSNMPVAAREASIYTGITLAEYFRDQGKNVSMIADSSSRWAEALREISGRLGEMPADQGFPAYLGAKLASFYERAGKAVALGSPDRTGSVSIVAAVSPAGGDFSDPVTTATLGITQVFWGLDKKLAQRKHFPSINTSVSYSKYTNVLNKFYDSNYPEFPVLRDRMKEILSNAEELEQVVQLVGKSALSDSDKITLDVATLIKEDFLQQNGYSTYDAFCPIWKTFDMMRAFISYHDEAQKAVANGANWSKLADSTGDVKHAVSSSKFFEPSRGEKEVHGEFEKLLSTMQERFAESTD
chain 3: VLSDKELFAINKKAVEQGFNVKPRLNYNTVSGVNGPLVILEKVKFPRYNEIVNLTLPDGTVRQGQVLEIRGDRAIVQVFEGTSGIDVKKTTVEFTGESLRIPVSEDMLGRIFDGSGRPIDNGPKVFAEDYLDINGSPINPYARIYPEEMISTGVSAIDTMNSIARGQKIPIFSASGLPHNEIAAQICRQAGLVRPTKDVHDGHEENFSIVFAAMGVNLETARFFKQDFEENGSLERTSLFLNLANDPTIERIITPRLALTTAEYLAYQTERHVLTILTDMSSYADALREVSAAREEVPGRRGYPGYMYTDLSTIYERAGRVEGRNGSITQIPILTMPNDDITHPIPDLTGYITEGQIFVDRQLHNKGIYPPINVLPSLSRLMKSAIGEGMTRKDHGDVSNQLYAKYAIGKDAAAMKAVVGEEALSIEDKLSLEFLEKFEKTFITQGAYEDRTVFESLDQAWSLLRIYPKEMLNRISPKILDEFYDRARDDADEDEEDPDTRSSGKKKDASQEESLI
Km: 41.7 µM | kcat: 9.6 s⁻¹
